Assays:
[1] = molecular target: T1, mouse NaV1.5 expressed in HEK293 cells (mouse, UniProt Q9JJV9 1-2019); experiment: cell-based or functional assay
[2] = molecular target: T2, mouse NaV1.6 expressed in HEK293 cells (mouse, UniProt Q9WTU3 1-1978); experiment: cell-based or functional assay
[3] = molecular target: T3, rat NaV1.8 expressed in HEK293 cells (rat, UniProt Q62968 1-1956); experiment: cell-based or functional assay
[4] = molecular target: T4, human NaV1.7 expressed in HEK293 cells (human, UniProt Q15858 1-1988); experiment: cell-based or functional assay
[5] = molecular target: T5, human NaV1.1 expressed in HEK293 cells (human, UniProt P35498 1-2009); experiment: cell-based or functional assay
[6] = molecular target: T6, rat NaV1.2 expressed in HEK293 cells (rat, UniProt P04775 1-2005); experiment: cell-based or functional assay
[7] = molecular target: T7, human NaV1.3 expressed in HEK293 cells (human, UniProt Q9NY46 1-2000); experiment: cell-based or functional assay
T7 sequence (Q9NY46 whole entry): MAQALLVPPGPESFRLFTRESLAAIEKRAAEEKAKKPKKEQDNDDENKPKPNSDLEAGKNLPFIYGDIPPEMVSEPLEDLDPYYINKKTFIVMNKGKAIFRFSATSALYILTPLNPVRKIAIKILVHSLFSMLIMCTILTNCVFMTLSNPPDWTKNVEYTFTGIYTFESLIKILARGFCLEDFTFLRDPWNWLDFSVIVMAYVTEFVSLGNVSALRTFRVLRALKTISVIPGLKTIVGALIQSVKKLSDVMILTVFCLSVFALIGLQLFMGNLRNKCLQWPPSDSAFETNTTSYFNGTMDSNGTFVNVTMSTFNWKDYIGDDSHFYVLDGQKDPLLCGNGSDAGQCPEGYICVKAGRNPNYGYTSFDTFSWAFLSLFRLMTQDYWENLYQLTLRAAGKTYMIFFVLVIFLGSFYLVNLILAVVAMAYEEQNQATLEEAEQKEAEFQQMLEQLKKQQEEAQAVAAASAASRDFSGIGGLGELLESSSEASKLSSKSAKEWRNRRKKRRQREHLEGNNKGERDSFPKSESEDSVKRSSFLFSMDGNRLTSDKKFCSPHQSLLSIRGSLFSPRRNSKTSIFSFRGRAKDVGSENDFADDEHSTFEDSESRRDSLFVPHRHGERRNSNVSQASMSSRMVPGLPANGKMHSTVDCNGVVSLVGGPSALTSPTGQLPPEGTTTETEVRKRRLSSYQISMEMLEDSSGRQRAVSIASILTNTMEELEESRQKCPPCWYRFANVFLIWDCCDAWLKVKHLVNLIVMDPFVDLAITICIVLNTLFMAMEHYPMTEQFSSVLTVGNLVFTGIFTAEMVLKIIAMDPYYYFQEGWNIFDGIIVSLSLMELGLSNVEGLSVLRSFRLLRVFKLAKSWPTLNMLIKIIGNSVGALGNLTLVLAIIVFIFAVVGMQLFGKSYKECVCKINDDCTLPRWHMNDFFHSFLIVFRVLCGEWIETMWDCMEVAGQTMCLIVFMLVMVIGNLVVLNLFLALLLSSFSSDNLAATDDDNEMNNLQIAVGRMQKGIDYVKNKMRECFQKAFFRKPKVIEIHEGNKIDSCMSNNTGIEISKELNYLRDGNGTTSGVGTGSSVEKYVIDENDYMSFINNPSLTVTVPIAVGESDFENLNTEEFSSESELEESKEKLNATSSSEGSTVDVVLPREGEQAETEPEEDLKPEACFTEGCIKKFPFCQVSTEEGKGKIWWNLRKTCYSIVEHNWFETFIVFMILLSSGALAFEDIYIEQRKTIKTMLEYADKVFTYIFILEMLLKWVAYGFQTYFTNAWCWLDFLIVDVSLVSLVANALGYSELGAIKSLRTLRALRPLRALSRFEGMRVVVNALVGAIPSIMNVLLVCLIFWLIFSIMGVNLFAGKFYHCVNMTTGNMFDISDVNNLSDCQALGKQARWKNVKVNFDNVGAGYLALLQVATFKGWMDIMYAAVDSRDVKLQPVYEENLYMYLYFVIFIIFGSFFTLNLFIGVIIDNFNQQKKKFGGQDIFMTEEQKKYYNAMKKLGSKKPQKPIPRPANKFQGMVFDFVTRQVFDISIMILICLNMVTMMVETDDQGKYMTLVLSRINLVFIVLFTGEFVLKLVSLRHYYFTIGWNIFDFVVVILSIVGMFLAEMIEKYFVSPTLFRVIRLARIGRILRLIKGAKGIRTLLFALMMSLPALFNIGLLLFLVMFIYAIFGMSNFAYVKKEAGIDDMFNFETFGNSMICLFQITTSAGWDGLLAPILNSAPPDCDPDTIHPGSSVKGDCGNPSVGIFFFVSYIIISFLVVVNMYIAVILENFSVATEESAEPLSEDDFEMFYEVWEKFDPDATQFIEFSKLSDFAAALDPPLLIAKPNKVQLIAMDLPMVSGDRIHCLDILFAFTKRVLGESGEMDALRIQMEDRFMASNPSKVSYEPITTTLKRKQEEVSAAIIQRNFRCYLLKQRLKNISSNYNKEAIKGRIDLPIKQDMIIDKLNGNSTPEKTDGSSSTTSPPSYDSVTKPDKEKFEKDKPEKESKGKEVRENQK

[8] = molecular target: T8, human NaV1.4 expressed in HEK293 cells (human, UniProt P35499 1-1836); experiment: cell-based or functional assay
[9] = molecular target: T1, mouse NaV1.5 expressed in HEK293 cells; experiment: cell-based or functional assay; remark: listed apart in the source
[10] = molecular target: T2, mouse NaV1.6 expressed in HEK293 cells; experiment: cell-based or functional assay; remark: listed apart in the source
[11] = molecular target: T3, rat NaV1.8 expressed in HEK293 cells; experiment: cell-based or functional assay; remark: listed apart in the source
[12] = molecular target: T4, human NaV1.7 expressed in HEK293 cells; experiment: cell-based or functional assay; remark: listed apart in the source
[13] = molecular target: T5, human NaV1.1 expressed in HEK293 cells; experiment: cell-based or functional assay; remark: listed apart in the source
[14] = molecular target: T6, rat NaV1.2 expressed in HEK293 cells; experiment: cell-based or functional assay; remark: listed apart in the source
[15] = molecular target: T7, human NaV1.3 expressed in HEK293 cells; experiment: cell-based or functional assay; remark: listed apart in the source
[16] = molecular target: T8, human NaV1.4 expressed in HEK293 cells; experiment: cell-based or functional assay; remark: listed apart in the source
[17] = molecular target: T4, human NaV1.7 expressed in HEK293 cells; experiment: fraction bound = 1 - I/I0 from whole-cell voltage clamp of hNaV1.7 in HEK293 cells, 30 ms pulses to -10 mV from -120 mV at 10 Hz; mean±S.E.M., n=10
[18] = molecular target: T4, human NaV1.7 expressed in HEK293 cells; experiment: apparent KD from whole-cell voltage clamp of hNaV1.7 in HEK293 cells at 10 Hz; fraction bound Y=1-I/I0 fitted to a one-site binding equation; apparent KD from inhibition of peak sodium current (Y=1-I/IO), one-site fit, n=10

T3 sequence (Q62968 whole entry): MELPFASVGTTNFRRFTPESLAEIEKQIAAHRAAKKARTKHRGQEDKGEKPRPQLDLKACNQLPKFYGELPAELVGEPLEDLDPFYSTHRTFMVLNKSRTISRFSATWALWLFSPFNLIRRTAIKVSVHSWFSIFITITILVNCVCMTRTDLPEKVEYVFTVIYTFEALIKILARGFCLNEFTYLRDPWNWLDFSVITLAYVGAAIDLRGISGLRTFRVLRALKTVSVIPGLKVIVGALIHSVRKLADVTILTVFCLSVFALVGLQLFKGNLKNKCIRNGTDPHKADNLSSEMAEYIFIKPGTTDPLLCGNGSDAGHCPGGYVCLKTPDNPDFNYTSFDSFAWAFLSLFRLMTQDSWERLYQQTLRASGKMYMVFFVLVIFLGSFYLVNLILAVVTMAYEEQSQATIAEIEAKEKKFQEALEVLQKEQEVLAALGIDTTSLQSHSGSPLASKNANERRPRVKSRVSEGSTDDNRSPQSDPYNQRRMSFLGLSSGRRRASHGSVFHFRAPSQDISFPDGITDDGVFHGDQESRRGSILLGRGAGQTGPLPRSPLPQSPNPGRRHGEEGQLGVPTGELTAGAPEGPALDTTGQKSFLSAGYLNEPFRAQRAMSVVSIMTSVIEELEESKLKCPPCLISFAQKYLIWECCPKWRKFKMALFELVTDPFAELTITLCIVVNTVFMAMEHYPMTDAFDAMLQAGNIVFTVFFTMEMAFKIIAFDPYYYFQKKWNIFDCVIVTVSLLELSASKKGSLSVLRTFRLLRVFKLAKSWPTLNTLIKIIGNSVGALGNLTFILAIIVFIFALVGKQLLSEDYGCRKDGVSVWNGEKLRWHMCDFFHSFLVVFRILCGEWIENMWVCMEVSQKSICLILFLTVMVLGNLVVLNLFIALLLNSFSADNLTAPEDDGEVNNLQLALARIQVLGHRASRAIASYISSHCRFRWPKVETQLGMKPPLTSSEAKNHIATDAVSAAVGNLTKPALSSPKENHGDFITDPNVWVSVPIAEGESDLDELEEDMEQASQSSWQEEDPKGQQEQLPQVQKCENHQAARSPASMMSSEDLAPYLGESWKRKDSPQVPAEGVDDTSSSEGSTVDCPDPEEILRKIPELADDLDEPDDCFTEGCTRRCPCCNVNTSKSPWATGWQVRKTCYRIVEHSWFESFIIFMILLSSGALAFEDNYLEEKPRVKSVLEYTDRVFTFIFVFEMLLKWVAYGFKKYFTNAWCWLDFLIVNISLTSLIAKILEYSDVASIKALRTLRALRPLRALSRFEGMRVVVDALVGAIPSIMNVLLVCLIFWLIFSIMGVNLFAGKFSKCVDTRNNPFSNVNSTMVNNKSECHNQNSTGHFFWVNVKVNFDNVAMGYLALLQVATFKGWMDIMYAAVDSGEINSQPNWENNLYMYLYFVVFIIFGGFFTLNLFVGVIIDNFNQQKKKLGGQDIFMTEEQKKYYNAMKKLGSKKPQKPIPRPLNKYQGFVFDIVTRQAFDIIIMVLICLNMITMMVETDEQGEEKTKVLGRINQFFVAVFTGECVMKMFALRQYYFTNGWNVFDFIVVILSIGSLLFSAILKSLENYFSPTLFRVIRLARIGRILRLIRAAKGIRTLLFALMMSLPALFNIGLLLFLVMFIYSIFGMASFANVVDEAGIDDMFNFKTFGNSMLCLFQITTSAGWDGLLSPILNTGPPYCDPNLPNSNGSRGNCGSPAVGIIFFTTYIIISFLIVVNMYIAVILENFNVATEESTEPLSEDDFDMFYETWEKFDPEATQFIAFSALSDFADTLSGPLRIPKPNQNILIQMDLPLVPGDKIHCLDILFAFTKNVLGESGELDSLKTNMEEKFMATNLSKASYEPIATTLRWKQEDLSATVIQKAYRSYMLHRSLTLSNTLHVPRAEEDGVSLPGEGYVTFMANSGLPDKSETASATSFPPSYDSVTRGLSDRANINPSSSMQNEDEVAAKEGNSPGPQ

fold decrease in efficacy relative to NaV1.7 [2]: ~2 fold | fold decrease in potency relative to NaV1.7 [2]: ~200 fold | IC50, sodium current at 2 Hz [3]: > 5 µM | IC50 of inhibition of human NaV1.7 currents at 0.1 Hz [4]: 0.107 µM | IC50 of inhibition of human NaV1.7 currents at 10 Hz [4]: 0.0167 µM | IC50, sodium current at 2 Hz [5]: > 5 µM | IC50, sodium current at 2 Hz [6]: > 5 µM | IC50, sodium current at 2 Hz [7]: > 5 µM | IC50, sodium current at 2 Hz [8]: > 5 µM | IC50 (µM), sodium current at 2 Hz [10]: 6.3 µM | Maximum inhibition (%) [10]: 44.2% | Selectivity for Nav1.7 [10]: 404 fold | IC50 (µM), sodium current at 2 Hz [11]: 5.2 µM | Maximum inhibition (%) [11]: 22.1% | Selectivity for Nav1.7 [11]: 666 fold | IC50 (µM), sodium current at 2 Hz [12]: 0.0307 µM | Maximum inhibition (%) [12]: 86.9% | Selectivity for Nav1.7 [12]: 1 fold | IC50 (µM), sodium current at 2 Hz [13]: 6.3 µM | Maximum inhibition (%) [13]: 20.7% | Selectivity for Nav1.7 [13]: 862 fold | IC50 (µM), sodium current at 2 Hz [14]: 9 µM | Maximum inhibition (%) [14]: 18.7% | Selectivity for Nav1.7 [14]: 1360 fold | IC50 (µM), sodium current at 2 Hz [15]: 8.7 µM | Maximum inhibition (%) [15]: 16.2% | Selectivity for Nav1.7 [15]: 1520 fold | IC50 (µM), sodium current at 2 Hz [16]: 7.9 µM | Maximum inhibition (%) [16]: 21.5% | Selectivity for Nav1.7 [16]: 1040 fold | EC50 (read off the curve) [17]: ~0.02 µM | Kd [18]: 0.0229 µM
B1: 1E16 monoclonal antibody (antibody, IgG1, V domains shown)
VH: QGQMQQSGAELVKPGASVKLSCKTSGFTFSSSYISWLKQKPGQSLEWIAWIYAGTGGTSYNQKFTGKAQLTVDTSSSTAYMQFSSLTTEDSAIYYCARQDGNYRYWYFDVWGAGTTVTVSS
VL: ETTVTQSPASLSMAIGEKVTIRCITSTDIDDDMNWYQQKPGEPPKLLISEGNTLRPGVPSRFSSSGYGTDFVFTIENMLSEDVADYYCLQSDNLPLTFGGGTKLEIK
notes: also called 1E16 mAb; 1E16 Ab
IC50, sodium current at 2 Hz [1]: > 5 µM | IC50 (µM), sodium current at 2 Hz [9]: 5.6 µM | Maximum inhibition (%) [9]: 19.1% | Selectivity for Nav1.7 [9]: 830 fold

Source: patent US20160237153A1 (DUKE UNIVERSITY, published 2016)
